According to patent US20090176205, “Mutant proteins in the dna-binding domain of a telomeric protein, trf2, and telomeric dna mutants, and use of the complex structure of the trf2 dna-binding domain and telomeric dna” (published 2009):

T1: hTRF2-DBD dm (A471S/A484S) (Homo sapiens, UniProt Q15554 SEQ:1-63)
T1 chain: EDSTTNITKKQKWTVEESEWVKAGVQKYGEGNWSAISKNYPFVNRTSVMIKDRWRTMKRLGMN

T2: hTRF2-DBD K447R (Homo sapiens, UniProt Q15554 SEQ:1-63)
T2 chain: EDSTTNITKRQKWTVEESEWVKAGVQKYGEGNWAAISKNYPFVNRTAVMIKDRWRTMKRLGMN

T3: hTRF2-DBD R496K (Homo sapiens, UniProt Q15554 SEQ:1-63)
T3 chain: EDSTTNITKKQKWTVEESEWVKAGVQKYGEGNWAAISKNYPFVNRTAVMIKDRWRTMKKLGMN

T4: hTRF2-DBD A484S (Homo sapiens, UniProt Q15554 SEQ:1-63)
T4 chain: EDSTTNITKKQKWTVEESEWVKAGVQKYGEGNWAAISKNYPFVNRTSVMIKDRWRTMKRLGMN

T5: hTRF2-DBD A471S (Homo sapiens, UniProt Q15554 SEQ:1-63)
T5 chain: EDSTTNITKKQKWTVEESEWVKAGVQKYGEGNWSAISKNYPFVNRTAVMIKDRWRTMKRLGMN

T6: hTRF2-DBD qm (K447R/A471S/A484S/R496K) (Homo sapiens, UniProt Q15554 SEQ:1-63)
T6 chain: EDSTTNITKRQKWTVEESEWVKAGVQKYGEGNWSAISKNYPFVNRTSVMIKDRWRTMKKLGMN


Key:
[1] = molecular target: T7, hTRF2-DBD wild type (Homo sapiens, UniProt Q15554 SEQ:1-63); assay: SPR; pH 6.8, 180 mM KCl, 293 K; conditions: tags: N-terminal Met added; untagged, E. coli BL21(DE3) pET23b; label: biotin (13mer on SA chip)
Protocol: (§1) The same experiments were performed on the six mutants of hTRF2 under the same conditions. […] Further, the six mutants were analyzed by SPR for the three DNAs T3G, G7C and T9G, as well as tr13. As a result, Kd values for T3G are about 7 times higher than those values for tr13; and Kd values for T9G are about 100 times higher than those values for tr13. […] Since C7′ is changed to G7′ in G7C, Asp489 which recognizes C7′ has become incapable of recognizing DNA. Thus, interaction with DNA is assumed to be non-specific. Although the affinity to T9G is about 10 times lower than the affinity to G7C, differences in Kd values of individual mutants for DNA show relatively similar tendencies to those observed in tr13 and T3G. It is believed that the binding mode between the major groove and recognition helix is not changed and that only the affinity to T9G is merely very low.
(§2) Affinity analysis was performed using a Biacore 3000 instrument. All experiments were performed at 293 K using a buffer containing 10 mM HEPES-KOH, 3 mM EDTA, 180 mM KCl and 0.003% Triton X-100 (v/v) (pH 6.8). Flow cells of an SA streptavidin sensor chip were coated with the 13mer oligonucleotide biotinylated. The proteins were injected into flow cells over 3-5 min at a flow rate of 10 μL/min until the reaction of protein with DNA had been equilibrated. Bound proteins were removed by a 30-sec wash with 2M KCl.

[2] = molecular target: T1, hTRF2-DBD dm (A471S/A484S); assay: SPR; pH 6.8, 180 mM KCl, 293 K; conditions: tags: N-terminal Met added; untagged, E. coli BL21(DE3) pET23b; label: biotin (13mer on SA chip)
Protocol: as §1, §2

[3] = molecular target: T2, hTRF2-DBD K447R; assay: SPR; pH 6.8, 180 mM KCl, 293 K; conditions: tags: N-terminal Met added; untagged, E. coli BL21(DE3) pET23b; label: biotin (13mer on SA chip)
Protocol: as §1, §2

[4] = molecular target: T3, hTRF2-DBD R496K; assay: SPR; pH 6.8, 180 mM KCl, 293 K; conditions: tags: N-terminal Met added; untagged, E. coli BL21(DE3) pET23b; label: biotin (13mer on SA chip)
Protocol: as §1, §2

[5] = molecular target: T4, hTRF2-DBD A484S; assay: SPR; pH 6.8, 180 mM KCl, 293 K; conditions: tags: N-terminal Met added; untagged, E. coli BL21(DE3) pET23b; label: biotin (13mer on SA chip)
Protocol: as §1, §2

[6] = molecular target: T5, hTRF2-DBD A471S; assay: SPR; pH 6.8, 180 mM KCl, 293 K; conditions: tags: N-terminal Met added; untagged, E. coli BL21(DE3) pET23b; label: biotin (13mer on SA chip)
Protocol: as §1, §2

[7] = molecular target: T8, hTRF1 (DNA-binding domain) (Homo sapiens, UniProt P54274 P54274:371-439); assay: SPR; pH 6.8, 180 mM KCl, 293 K; conditions: label: biotin (13mer on SA chip)
Protocol: as §1, §2

[8] = molecular target: T8, hTRF1 (DNA-binding domain); assay: SPR; 10 mM HEPES-KOH pH 6.8, 3 mM EDTA, 180 mM KCl, 0.003% Triton X-100, 293 K; conditions: label: biotin (13mer on SA chip)
Protocol: The same experiments were performed on hTRF1 under the same conditions.
as §2, with “KCl. An equilibrium dissociate constant (Kd) was calculated from a Scatchard analysis of the RU values in the equilibrium region of the sensorgram at each analyte concentration. The affinity data were analyzed using BIAevaluation ver. 3.2 software.” for “KCl.”

[9] = molecular target: T7, hTRF2-DBD wild type; assay: SPR; pH 6.8, 180 mM KCl, 293 K; 1:1 complex also shown by NMR titration and structure; conditions: tags: N-terminal Met added; untagged, E. coli BL21(DE3) pET23b; label: biotin (13mer on SA chip)
Protocol: as §1, §2

[10] = molecular target: T6, hTRF2-DBD qm (K447R/A471S/A484S/R496K); assay: SPR; pH 6.8, 180 mM KCl, 293 K; conditions: tags: N-terminal Met added; untagged, E. coli BL21(DE3) pET23b; label: biotin (13mer on SA chip)
Protocol: as §1, §2

T8 sequence (P54274 371-439, one chain of several): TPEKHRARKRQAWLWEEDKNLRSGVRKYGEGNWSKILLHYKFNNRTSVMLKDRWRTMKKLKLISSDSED

Binder	Kd [1]	Kd [2]	Kd [3]	Kd [4]	Kd [5]	Kd [6]	Kd [7]	Kd [8]	Kd [9]	Kd [10]
T3G (dsDNA) DNA 1: GTGAGGGTTAGGG DNA 2: CCCTAACCCTCAC	5.94 µM	2.58 µM	2.19 µM	4.92 µM	4.03 µM	3.07 µM	0.795 µM			
tr13 (dsDNA) DNA 1: GTTAGGGTTAGGG DNA 2: CCCTAACCCTAAC		0.385 µM	0.297 µM	0.764 µM	0.55 µM	0.482 µM		186 nM	748 nM	0.196 µM
T9G (dsDNA) DNA 1: GTTAGGGTGAGGG DNA 2: CCCTCACCCTAAC	110 µM	47.9 µM	37 µM	114 µM	69.1 µM	44.2 µM	3.14 µM			26.5 µM
G7C (dsDNA) DNA 1: GTTAGGCTTAGGG DNA 2: CCCTAAGCCTAAC		33.8 µM	24.5 µM	87 µM	50.7 µM	32.3 µM	12.2 µM			
